What all share (conditions): both partners purified
In assay [1] the target is T1, GII.10 P domain (Vietnam026) (norovirus GII.10 (Vietnam026)).
T1 construct: source: E. coli, purified
Nature of the assay: ITC. Background: In ITC the heat of successive injections is recorded.

The target in assay [2] is T1, GII.10 P domain (Vietnam026). In words: ITC. The source holds these as a separate data set.
For assay [3] the target is unchanged. Nature of the assay: ELISA. For orientation: ELISA stands for enzyme-linked immunosorbent assay.

In general, Kd refers to the equilibrium constant for the complex coming apart. A high value points to a looser complex.

B1: Nano-32 (VHH)
VHH: QVQLQESGGGLVQPGGSLRLSCAASGFTLGYYPIGWFRQAPGKGLEGVSCISGSGGSANYAASVKGRFTISRDNAKNTVYLQMNSLKPEDTAIYYCAADLSSLTTVQAMCVIPRPGFSAKAYDYWGLGTQVTVSS
In assay [1], B1 had a Kd of 60 nM and a dH of 5 kcal/mol. Also, the “stoichiometry N” value in assay [2] was 1 Nanobody per P domain monomer.

B2: Nano-27 (VHH)
VHH: QVQLQESGGGLVQPGGSLRLSCAASGTIFSRNIMGWYRQAPGKERELVASIYSDRSTWYAESVEGRFTISRDNVKNTLYLQMNSLKPEDTAMYYCRDRTLGSWGQGTQVTVSS
In assay [1], B2 returned a Kd of 9.5 nM and a dH of -8.1 kcal/mol. Also, the “stoichiometry N” value in assay [2] is 1 Nanobody per P domain monomer.

B3: Nano-4 (VHH)
VHH: QVQLQESGGGLVQPGGSLRLFCAASGFTFSSYAMRWYRQAPGKERELVAAITSAGGSTHYADSVKERFTISRDNAKNTMYLQMNSLKPEDTAVYYCNARRDYGDSWFTAGGGYWGQGTQVTVSS
B3: in assay [1], the Kd came to 35 nM and the dH was -12 kcal/mol. Besides, the “lowest Nanobody concentration that detected the antigen (direct ELISA)” value in assay [3] worked out at 20 ng/mL. Also, in assay [2], the “stoichiometry N” value is 1 Nanobody per P domain monomer.

B4: Nano-42 (VHH)
VHH: QVQLQESGGGLVQPGGSLRLSCAASGSVSRTYVMGWYRQTPGNQRELVATITSVGSTNYADSLKGRFTISRENAENTVYLQMNSLKPEDTAIYYCKYIRYSPIHAPLDYWGQGTQVTVSS
In assay [1], B4 returned a Kd of 0.809 nM and a dH of -9.84 kcal/mol. The “lowest Nanobody concentration that detected the antigen (direct ELISA)” value in assay [3] came out at 20 ng/mL. The “stoichiometry N” value in assay [2] was 1 Nanobody per P domain monomer.

B5: Nano-14 (VHH)
VHH: QVQLQESGGGLVQSGGSLRLSCAASRNINSMHVVGWYRQAPGNQRELVASITDDGSTDYVDSVKGRFTISRDIAENTVYLQMNSLNPEDTAVYYCKGTIVVFTTPMHYWGKGTQVTVSS
notes: also called N14; source: E. coli WK6 (pHEN6C vector), purified
With B5, in assay [1], binding was put at a Kd of 10.4 nM and the dH is -22 kcal/mol. In assay [3], the “lowest Nanobody concentration that detected the antigen (direct ELISA)” value was 20 ng/mL. Further, the “stoichiometry N” value in assay [2] is 0.5 Nanobody per P domain monomer.

B6: Nano-26 (VHH)
VHH: QVQLQESGGGLVQPGGSLRLSCTAPRIIFFMYDVGWYRQAPEKQRELVAQINSDVSTKYADSVKGRFTISRDNAKRTVYLQMNDLKPEDAAVYYCNVRRASADYWGQGTQVTVSS
notes: also called N26; source: E. coli WK6 (pHEN6C vector), purified
For B6, in assay [1], the affinity, expressed as Kd, was 3.2 nM and the dH is -10 kcal/mol. For the same molecule, the “lowest Nanobody concentration that detected the antigen (direct ELISA)” value in assay [3] is 20 ng/mL. Further, in assay [2], the “stoichiometry N” value is 1 Nanobody per P domain monomer.

These data come from article PMC5667739 (PLoS Pathogens, 2017).
